Assay [1] deals with human CD3ε on activated PBMC (human, UniProt P07766 23-207). The assay can be described thus: cell-based or functional assay.
Assay [2] addresses T1, hIL-5Rα, purified recombinant protein (human, UniProt Q01344 21-342, limits assumed).
T1 construct: Soluble antigen of the Octet experiments
T1 sequence (looked up): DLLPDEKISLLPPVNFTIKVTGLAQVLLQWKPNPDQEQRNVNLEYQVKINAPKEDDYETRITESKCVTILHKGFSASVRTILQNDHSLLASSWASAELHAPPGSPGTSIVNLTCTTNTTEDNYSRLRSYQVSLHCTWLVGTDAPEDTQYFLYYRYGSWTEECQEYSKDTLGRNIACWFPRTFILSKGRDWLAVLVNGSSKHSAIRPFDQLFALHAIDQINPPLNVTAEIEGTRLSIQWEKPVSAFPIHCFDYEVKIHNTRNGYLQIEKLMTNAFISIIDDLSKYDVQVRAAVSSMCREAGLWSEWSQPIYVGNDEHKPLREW
The assay can be described thus: BLI (Octet QKe), antibody captured on AHC sensor, antigen 125-4,000 nM, 1:1 model. In general terms: BLI is a label-free optical method that tracks binding on a fibre tip over time.

Assay [3] deals with T2, CD3ε, commercially available (sinobiological, 10977-H08H) (UniProt P07766 23-126).
T2 construct: Bought protein
T2 sequence (P07766 23-126 limits assumed): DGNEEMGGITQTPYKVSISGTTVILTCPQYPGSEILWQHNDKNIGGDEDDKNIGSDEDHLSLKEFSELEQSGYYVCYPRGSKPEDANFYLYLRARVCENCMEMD
Described as above.

Assay [4] has as its target T3, human IL-5Rα expressed on the K562/IL-5Rα cell line (human, UniProt Q01344 21-420).
T3 sequence (looked up): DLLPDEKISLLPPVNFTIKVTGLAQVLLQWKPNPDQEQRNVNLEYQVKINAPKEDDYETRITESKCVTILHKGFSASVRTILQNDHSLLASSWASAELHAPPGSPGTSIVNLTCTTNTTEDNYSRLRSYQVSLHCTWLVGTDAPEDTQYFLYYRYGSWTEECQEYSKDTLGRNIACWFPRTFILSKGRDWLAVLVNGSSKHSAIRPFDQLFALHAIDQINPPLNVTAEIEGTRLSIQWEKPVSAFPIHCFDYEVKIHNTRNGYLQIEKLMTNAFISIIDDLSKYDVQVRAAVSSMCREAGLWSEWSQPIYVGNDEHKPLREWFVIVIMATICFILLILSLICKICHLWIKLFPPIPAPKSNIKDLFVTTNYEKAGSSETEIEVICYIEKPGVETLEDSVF
The assay can be described thus: cell-based or functional assay.

Assay [5] deals with T1, hIL-5Rα, purified recombinant protein. The experiment in a line: BLI (Octet QKe), ratio of the KD values of Table 2.

Here are results for four molecules from patent EP4707301A1 (AJOU UNIVERSITY INDUSTRY-ACADEMIC COOPERATION FOUNDATION, dated 2026).

Chain of human CD3ε on activated PBMC (P07766 23-207): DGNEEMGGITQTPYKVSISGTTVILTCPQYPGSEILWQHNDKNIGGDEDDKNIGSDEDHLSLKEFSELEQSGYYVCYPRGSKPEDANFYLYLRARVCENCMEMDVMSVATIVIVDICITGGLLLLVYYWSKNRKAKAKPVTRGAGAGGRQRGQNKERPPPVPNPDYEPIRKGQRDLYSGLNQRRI

B1: IL-5Rα×CD3ε-BiTE(L)/scFv-Fc (bispecific antibody, human IgG1)
chain 1: DIQMTQSPSTLSASVGDRVTITCKASQNVGTAVAWYQQKPGKAPKLLIYWASTRHTGVPDRFSGSGSGTDFTLTISSLQPDDFATYYCQQFGRYPYTFGSGTKVEVKGGGGSGGGGSGGGGSQVQLVQSGAEVKKPGSSVKVSCKASGYTFTSYWINWVRQAPGQGLEWIGHIYPNKNENYYNHKFKDKATLTVDKSTNTAYMELSSLRSEDTAVYYCTREFYGRQYYQAMDYWGQGTTLTVSSGGGGSQAVVTQESALTTSPGETVTLTCRSSTGAVTTSNYANWVQEKPDHLFTGLIGGTNKRAPGVPARFSGSLIGDKAALTITGAQTEDEAIYFCALWYSNLWVFGGGTKLTVLGGGGSGGGGSGGGGSEVQLVESGGGLVQPKGSLKLSCAASGFTFNTYAMNWVRQAPGKGLEWVARIRSKYNNYATYYADSVKDRFTISRDDSQSILYLQMNNLKTEDTAMYYCVRHGNFGNSYVSWFAYWGQGTLVTVSSEPKSCDKTHTCPPCPAPEFEGGPSVFLFPPKPKDTLMISRTPEVTCVVVAVSHEDPEVKFNWYVDGVEVHNAKTKPREEQYNSTYRVVSVLTVLHQDWLNGKEYKCKVSNKALPAPIEKTISKAKGQPREPQVYTLPPSRDELTENQVSLTCLVKGFYPSDIAVEWESNGQPENNYKTTPPVLDSDGSFFLYSWLTVDKSRWQQGNVFSCSVMHEALHNHYTQKSLSLSPGK
chain 2: QVQLVQSGAEVKKPGSSVKVSCKASGYTFTSYWINWVRQAPGQGLEWIGHIYPNKNENYYNHKFKDKATLTVDKSTNTAYMELSSLRSEDTAVYYCTREFYGRQYYQAMDYWGQGTTLTVSSGGGGSGGGGSGGGGSDIQMTQSPSTLSASVGDRVTITCKASQNVGTAVAWYQQKPGKAPKLLIYWASTRHTGVPDRFSGSGSGTDFTLTISSLQPDDFATYYCQQFGRYPYTFGSGTKVEVKEPKSCDKTHTCPPCPAPEFEGGPSVFLFPPKPKDTLMISRTPEVTCVVVAVSHEDPEVKFNWYVDGVEVHNAKTKPREEQYNSTYRVVSVLTVLHQDWLNGKEYKCKVSNKALPAPIEKTISKAKGQPREPRVYTLPPSRDELTKNQVSLTCLVKGFYPSDIAVEWESNGQPENNYKTTPPVLVSDGSFTLYSKLTVDKSRWQQGNVFSCSVMHEALHNHYTQKSLSLSPGK
notes: Heterodimeric IgG1 Fc with EW-RVT and FEA mutations
By Kd is commonly meant a measure of binding affinity in units of concentration. One may read the koff as the first-order rate constant of dissociation. By kon is commonly meant a measure of how fast the partners come together. B1: in assay [1], the “IFN-γ EC50 (pM), ELISA of supernatant after 24 h co-culture of activated PBMC and K562/IL-5Rα” value (“IFN-γ EC50 (pM), ELISA of supernatant” for short) worked out at 31000 pM. Further, in assay [2], the Kd was 22.9 nM, the koff was 0.000708 s⁻¹ and the kon was 30900 M⁻¹ s⁻¹. In assay [3], this molecule showed a dissociation constant Kd of 4.62 nM, a dissociation rate constant (koff) of 0.000827 s⁻¹ and an on-rate (kon) of 179000 M⁻¹ s⁻¹. Further, the “24hr EC50 of T cell-mediated cytotoxicity (LDH release) against K562/IL-5Rα, activated PBMC, E:T 5:1” value (“24hr EC50” for short) in assay [4] amounted to 14.7 pM.

B2: IL-5Rα×CD3ε-scFv(L)/scFv-Fc (bispecific antibody, human IgG1)
chain 1: QAVVTQESALTTSPGETVTLTCRSSTGAVTTSNYANWVQEKPDHLFTGLIGGTNKRAPGVPARFSGSLIGDKAALTITGAQTEDEAIYFCALWYSNLWVFGGGTKLTVLGGGGSGGGGSGGGGSEVQLVESGGGLVQPKGSLKLSCAASGFTFNTYAMNWVRQAPGKGLEWVARIRSKYNNYATYYADSVKDRFTISRDDSQSILYLQMNNLKTEDTAMYYCVRHGNFGNSYVSWFAYWGQGTLVTVSSEPKSCDKTHTCPPCPAPEFEGGPSVFLFPPKPKDTLMISRTPEVTCVVVAVSHEDPEVKFNWYVDGVEVHNAKTKPREEQYNSTYRVVSVLTVLHQDWLNGKEYKCKVSNKALPAPIEKTISKAKGQPREPQVYTLPPSRDELTENQVSLTCLVKGFYPSDIAVEWESNGQPENNYKTTPPVLDSDGSFFLYSWLTVDKSRWQQGNVFSCSVMHEALHNHYTQKSLSLSPGK
chain 2: DIQMTQSPSTLSASVGDRVTITCKASQNVGTAVAWYQQKPGKAPKLLIYWASTRHTGVPDRFSGSGSGTDFTLTISSLQPDDFATYYCQQFGRYPYTFGSGTKVEVKGGGGSGGGGSGGGGSQVQLVQSGAEVKKPGSSVKVSCKASGYTFTSYWINWVRQAPGQGLEWIGHIYPNKNENYYNHKFKDKATLTVDKSTNTAYMELSSLRSEDTAVYYCTREFYGRQYYQAMDYWGQGTTLTVSSEPKSCDKTHTCPPCPAPEFEGGPSVFLFPPKPKDTLMISRTPEVTCVVVAVSHEDPEVKFNWYVDGVEVHNAKTKPREEQYNSTYRVVSVLTVLHQDWLNGKEYKCKVSNKALPAPIEKTISKAKGQPREPRVYTLPPSRDELTKNQVSLTCLVKGFYPSDIAVEWESNGQPENNYKTTPPVLVSDGSFTLYSKLTVDKSRWQQGNVFSCSVMHEALHNHYTQKSLSLSPGK
notes: Built from 5R65.7 and humanized SP34 scFvs with (G4S)3 linkers and an IgG1 hinge; Heterodimeric IgG1 Fc with EW-RVT and FEA mutations; also called IL-5Rα×CD3α-scFv(L)/scFv-Fc
Take B2: the “IFN-γ EC50 (pM), ELISA of supernatant” value in assay [1] worked out at 770 pM. Further, in assay [2], the Kd worked out at 59.8 nM, the koff turned out to be 0.000171 s⁻¹ and the on-rate constant (kon) is 2850 M⁻¹ s⁻¹. Also, in assay [3], the dissociation constant (Kd) came to 3.61 nM, the dissociation rate constant (koff) was 0.000634 s⁻¹ and the kon came out at 176000 M⁻¹ s⁻¹. The “24hr EC50” value in assay [4] was 0.857 pM. Further, the “fold higher binding affinity for IL-5Rα than the Diabody-Fc format” value in assay [5] was around 2.1 fold.

B3: IL-5Rα×CD3ε-IgG analog (bispecific antibody)
heavy 1: QVQLVQSGAEVKKPGSSVKVSCKASGYTFTSYWINWVRQAPGQGLEWIGHIYPNKNENYYNHKFKDKATLTVDKSTNTAYMELSSLRSEDTAVYYCTREFYGRQYYQAMDYWGQGTTLTVSSASTKGPSVFPLAPSSKSTSGGTAALGCLVKDYFPEPVTVSWNSGALTSGVHTFPAVLQSSGLYSLSSVVTVPSSSLGTQTYICNVNHKPSNTKVDKKVEPKSCDKTHTCPPCPAPEFEGGPSVFLFPPKPKDTLMISRTPEVTCVVVAVSHEDPEVKFNWYVDGVEVHNAKTKPREEQYNSTYRVVSVLTVLHQDWLNGKEYKCKVSNKALPAPIEKTISKAKGQPREPRVYTLPPSRDELTKNQVSLTCLVKGFYPSDIAVEWESNGQPENNYKTTPPVLVSDGSFTLYSKLTVDKSRWQQGNVFSCSVMHEALHNHYTQKSLSLSPGK
light: DIQMTQSPSTLSASVGDRVTITCKASQNVGTAVAWYQQKPGKAPKLLIYWASTRHTGVPDRFSGSGSGTDFTLTISSLQPDDFATYYCQQFGRYPYTFGSGTKVEVKRTVAAPSVFIFPPSDEQLKSGTASVKCLLNNFYPREAKVQWKVDNALQSGNSQESVTEQDSKDSTYSLSSTLTLSKADYEKHKVYACEVTHQGLSSPVTKSFNRGEC
heavy 2: not shown
chain: QAVVTQESALTTSPGETVTLTCRSSTGAVTTSNYANWVQEKPDHLFTGLIGGTNKRAPGVPARFSGSLIGDKAALTITGAQTEDEAIYFCALWYSNLWVFGGGTKLTVLRTVAAPSVFIFPPSDEQLKSGTASVECLLNNFYPREAKVQWKVDNALQSGNSQESVTEQDSKDSTYSLSSTLTLSKADYEKHKVYACEVTHQGLSSPVTKSFNRGEC
notes: Four-chain molecule: SP34 heavy and light chains and 5R65.7 heavy and light chains, with complementary CH1/CL mutations, EW-RVT and FEA
Take B3: the “IFN-γ EC50 (pM), ELISA of supernatant” value in assay [1] is 2210 pM. In assay [2], the Kd was 30.5 nM, the koff worked out at 0.00011 s⁻¹ and the on-rate (kon) came out at 3610 M⁻¹ s⁻¹. In assay [3], this molecule returned a Kd of 1.71 nM, a koff of 0.000474 s⁻¹ and a kon of 278000 M⁻¹ s⁻¹. Further, the “24hr EC50” value in assay [4] was found to be 23.1 pM.

B4: IL-5Rα×CD3ε-Diabody-Fc (bispecific antibody)
chain 1: DIQMTQSPSTLSASVGDRVTITCKASQNVGTAVAWYQQKPGKAPKLLIYWASTRHTGVPDRFSGSGSGTDFTLTISSLQPDDFATYYCQQFGRYPYTFGSGTKVEVKGGGSGGGGEVQLVESGGGLVQPKGSLKLSCAASGFTFNTYAMNWVRQAPGKGLEWVARIRSKYNNYATYYADSVKDRFTISRDDSQSILYLQMNNLKTEDTAMYYCVRHGNFGNSYVSWFAYWGQGTLVTVSSGCPPCPAPEFEGGPSVFLFPPKPKDTLMISRTPEVTCVVVAVSHEDPEVKFNWYVDGVEVHNAKTKPREEQYNSTYRVVSVLTVLHQDWLNGKEYKCKVSNKALPAPIEKTISKAKGQPREPQVYTLPPSRDELTENQVSLTCLVKGFYPSDIAVEWESNGQPENNYKTTPPVLDSDGSFFLYSWLTVDKSRWQQGNVFSCSVMHEALHNHYTQKSLSLSPGK
chain 2: QAVVTQESALTTSPGETVTLTCRSSTGAVTTSNYANWVQEKPDHLFTGLIGGTNKRAPGVPARFSGSLIGDKAALTITGAQTEDEAIYFCALWYSNLWVFGGGTKLTVLGGGSGGGGQVQLVQSGAEVKKPGSSVKVSCKASGYTFTSYWINWVRQAPGQGLEWIGHIYPNKNENYYNHKFKDKATLTVDKSTNTAYMELSSLRSEDTAVYYCTREFYGRQYYQAMDYWGQGTTLTVSSGCPPCPAPEFEGGPSVFLFPPKPKDTLMISRTPEVTCVVVAVSHEDPEVKFNWYVDGVEVHNAKTKPREEQYNSTYRVVSVLTVLHQDWLNGKEYKCKVSNKALPAPIEKTISKAKGQPREPRVYTLPPSRDELTKNQVSLTCLVKGFYPSDIAVEWESNGQPENNYKTTPPVLVSDGSFTLYSKLTVDKSRWQQGNVFSCSVMHEALHNHYTQKSLSLSPGK
notes: Built from 5R65.7 (anti-IL-5Rα) and humanized SP34 (anti-CD3ε); Heterodimeric IgG1 Fc with EW-RVT and L234F/L235E/D265A (FEA) mutations
B4: in assay [1], the “IFN-γ EC50 (pM), ELISA of supernatant” value turned out to be 2340 pM. In assay [2], the Kd turned out to be 123 nM, the koff was determined as 0.000306 s⁻¹ and the kon was 2500 M⁻¹ s⁻¹. In addition, in assay [3], the Kd turned out to be 8.41 nM, the koff was determined as 0.00141 s⁻¹ and the kon stood at 167000 M⁻¹ s⁻¹. In addition, the “24hr EC50” value in assay [4] is 4.97 pM.
